Source: patent publication US20120094909A1 (Bristol-Myers Squibb, published 2012)
Residue numbers refer to the chain shown, from its start. Values joined by “and” are separate entries in the source; they are usually repeats but may differ in a detail not shown here. Equal values may be shown once. Read-outs that look alike come from different tables or passages of the source. Values belong to the binder of their own block, whether it stands above or below them.

Tests used:
human serum albumin [1] = biological target: T1, human serum albumin (human, UniProt P02768 25-609); test: SPR (Biacore), albumin captured on chip, SABA in flow; n = 4
T1 construct: also called HSA
Description: (§1) The kinetics of selected SABA clones purified from HTPP and/or midscaled material described in Examples 5A and 5B were determined by capturing the respective serum albumin (HSA/RhSA/MuSA) on the surface of a Biasensor CMS chip and flowing a concentration series of SABAs over both the reference flow cell and the captured albumins. In addition, binding to albumin was carried out under various pH conditions ranging from pH 5.5 to pH 7.4.

rhesus serum albumin [2] = biological target: T2, rhesus serum albumin (rhesus, UniProt Q28522 17-600); test: SPR (Biacore), albumin captured on chip, SABA in flow
T2 construct: also called RhSA
Description: as §1

human serum albumin [3] = biological target: T1, human serum albumin; test: as above
Description: as §1

[4] = biological target: T3, human PCSK9 (proprotein convertase subtilisin kexin type 9) (human, UniProt Q8NBP7 31-692); test: PCSK9:EGFA FRET, competitor EGFA peptide
T3 construct: immobilized directly (ProteOn), biotinylated (Octet) or in solution, according to the assay; also called hPCSK9; PCSK9-AF647 (labelled form)

[5] = biological target: T3, human PCSK9 (proprotein convertase …); test: ITC, 37 C
[6] = biological target: T3, human PCSK9 (proprotein convertase …); test: BLI (Octet Red), 37 C
[7] = biological target: T3, human PCSK9 (proprotein convertase …); test: cell-based or functional assay
[8] = biological target: T3, human PCSK9 (proprotein convertase …); test: cell-based or functional assay; remark: listed apart in the source
[9] = biological target: T3, human PCSK9 (proprotein convertase …); test: SPR (ProteOn), PCSK9 immobilized directly, 25 C
Description: (§2) The binding characteristics were characterized by Surface Plasmon Resonance (SPR). […] This allowed kinetic determination in the absence of regeneration. […] Evaluation of the kinetic parameters was performed using the Langmuir interaction model and constant parameter fitting with the ProteOn Manager software.

[10] = biological target: T3, human PCSK9 (proprotein convertase …); test: SPR (ProteOn), 25 C
[11] = biological target: T4, human PCSK9 (proprotein convertase subtilisin kexin type 9) (human, UniProt Q8NBP7 31-692); test: FRET direct binding, anti-his6 antibody
T4 construct: Directly immobilized (SPR ProteOn), biotinylated (BLI), or in solution, depending on the assay; also called hPCSK9
Source text: (§3) Table 11 summarizes the overall data from these three FRET assays.

cynomolgus monkey PCSK9 [12] = biological target: T5, cynomolgus monkey PCSK9 (cynomolgus monkey, UniProt A0A7N9D9N8 150-747); test: FRET, competitor EGFA peptide
T5 construct: also called cyno PCSK9; cPCSK9
Source text: as §3

[13] = biological target: T4, human PCSK9 (proprotein convertase …); test: FRET, competitor EGFA peptide
Source text: as §3

cynomolgus monkey PCSK9 [14] = biological target: T5, cynomolgus monkey PCSK9; test: SPR ProteOn, 25 C
Description: as §2

[15] = biological target: T4, human PCSK9 (proprotein convertase …); test: SPR ProteOn, 25 C
Description: as §2

[16] = biological target: T4, human PCSK9 (proprotein convertase …); test: FRET, competitor ATI000972
Source text: as §3

[17] = biological target: T4, human PCSK9 (proprotein convertase …); test: cell-based or functional assay; remark: listed apart in the source
cynomolgus monkey PCSK9 [18] = biological target: T5, cynomolgus monkey PCSK9; test: SPR ProteOn, PCSK9 immobilized, 25 C
Description: as §2

[19] = biological target: T4, human PCSK9 (proprotein convertase …); test: SPR ProteOn, PCSK9 immobilized, 25 C
Description: as §2

[20] = biological target: T4, human PCSK9 (proprotein convertase …); test: BLI, biotinylated hPCSK9 on sensor tips
cynomolgus monkey PCSK9 [21] = biological target: T6, cynomolgus monkey PCSK9 (cynomolgus monkey, UniProt A0A7N9D9N8 150-747); test: FRET, competitor EGFA peptide
Source text: as §3

cynomolgus monkey PCSK9 [22] = biological target: T6, cynomolgus monkey PCSK9; test: SPR ProteOn, 25 C
Description: as §2

cynomolgus monkey PCSK9 [23] = biological target: T6, cynomolgus monkey PCSK9; test: SPR ProteOn, PCSK9 immobilized, 25 C
Description: as §2

[24] = biological target: T4, human PCSK9 (proprotein convertase …); test: SPR Biacore, ATI-1081 captured on anti-His antibody, hPCSK9 in flow, 25 C
Description: The binding characteristics were characterized by Surface Plasmon Resonance (SPR). […] […] Duplicate experiments for PRD460 were performed on different days. Kinetic determinations were performed at 25° C. Evaluation of the kinetic parameters was performed using the 1:1 Binding algorithm on the BIACORE® Evaluation software.

[25] = biological target: T4, human PCSK9 (proprotein convertase …); test: ITC, 37 C
Description: Solution phase binding was measured in 25 mM HEPES, pH 7.41, 150 mM NaCl at 37° C.

[26] = biological target: T4, human PCSK9 (proprotein convertase …); test: KinExA, solution phase
Description: Due to technical limitations, the lowest concentration of Adnectins that could be tested was 1 nM.

human serum albumin [27] = biological target: T1, human serum albumin; test: SPR (Biacore), albumin captured on chip, SABA in flow; n = 6
Description: as §1

rhesus serum albumin [28] = biological target: T2, rhesus serum albumin; test: SPR (Biacore), albumin captured on chip, SABA in flow; n = 4
Description: as §1

human serum albumin [29] = biological target: T1, human serum albumin; test: SPR (Biacore), albumin captured on chip, SABA in flow; n = 9
Description: as §1

human serum albumin [30] = biological target: T7, human serum albumin (human, UniProt P02768 25-609); test: kinetic analysis, HBS-P buffer
T7 construct: also called HSA

rhesus serum albumin [31] = biological target: T8, rhesus serum albumin (rhesus, UniProt Q28522 17-600); test: kinetic analysis, HBS-P buffer
T8 construct: also called RhSA

rat serum albumin = rat serum albumin (rat, UniProt P02770 25-608); test: kinetic analysis and direct binding ELISA (Table 18, FIG. 27)
murine serum albumin = biological target: T9, murine serum albumin (mouse, UniProt P07724 25-608); test: as above
T9 construct: also called MuSA; mouse serum albumin

Kd (human serum albumin [1]): 412 nM
Kd (rhesus serum albumin [2]): > 1000 nM
koff (rhesus serum albumin [2]): 0.00383 s⁻¹
koff (human serum albumin [3]): 0.000782 s⁻¹
B1: SABA4.1 (designed binder)
chain: MGVSDVPRDLEMVAATPTSLLISWEDDSYYSRYYRITYGETGGNSPVQEFTVPSDLYTATISGLKPGVDYTITVYAVTYDVTDLIMHEPISINYRTEIDKPSQHHHHHH
notes: Carries a scaffold mutation; SABA5 is the scaffold-perfect version

EC50 [11]: 1.4 nM
EC50 (cynomolgus monkey PCSK9 [12]): 70.3 nM
EC50 [13]: 2.1 nM
IC50 [13]: 2.1 nM
Kd (cynomolgus monkey PCSK9 [14]): 24.3 nM
Kd [15]: 0.25 nM
IC50 [16]: 1.2 nM
LDLR Depletion EC50 [17]: 12 nM
Kd (cynomolgus monkey PCSK9 [18]): 24.3 nM
koff (cynomolgus monkey PCSK9 [18]): 0.00475 s⁻¹
kon (cynomolgus monkey PCSK9 [18]): 195000 M⁻¹ s⁻¹
Kd [19]: 0.251 nM
koff [19]: 6.47e-05 s⁻¹
kon [19]: 259000 M⁻¹ s⁻¹
B3: 2012A04 (designed binder)
chain: MGVSDVPRDLEVVAATPTSLLISWRPPSNGHGYYRITYGETGGNSPVQEFTVPVNEGTATISGLKPGVDYTITVYAVEFPFKWSGYYHRPISINYRTEIDKPSQHHHHHH
notes: Anti-PCSK9 Adnectin, His6-tagged

Kd (rhesus serum albumin [28]): 778 nM
Kd (human serum albumin [29]): 47.2 nM
koff (rhesus serum albumin [2]): 0.00545 s⁻¹
koff (human serum albumin [3]): 0.000457 s⁻¹
B7: SABA1.1 (designed binder)
chain: MGVSDVPRDLEVVAATPTSLLISWHSYYEQNSYYRITYGETGGNSPVQEFTVPYSQTTATISGLKPGVDYTITVYAVYGSKYYYPISINYRTEIDKPSQHHHHHH
notes: also called clone 1318H04

Further lines, the binder ahead of its results:

B2: 1459D05 (designed binder)
chain: B3 chain with R25P, N29H, H31Y, V54P, N55G, E56K, F79Y, F81Y, W83H
notes: also called ATI000891; ATI-891
EC50 [4]: 4 nM
Kd [5]: 26 nM
Kd [6]: 14.4 nM
LDLR Depletion (% inhibition at 75 nM) [7]: 66.8%
LDLR Depletion EC50 [7]: > 200 nM
DiI-LDL uptake in HepG2 cells, EC50 [8]: 190 nM
percentage of PCSK9 inhibition at 75 nM [8]: 66.8%
Kd [9]: 1.6 nM
Kd [10]: 1.58 nM

B4: 2011H05 (designed binder)
chain: MGVSDVPRDLEVVAATPTSLLISWVPSSHAYGYYRITYGETGGNSPVQEFTVPVGVGTATISGLKPGVDYTITVYAVEYAFEGAGYYHRPISINYRTEIDKPSQHHHHHH
notes: Anti-PCSK9 Adnectin, His6-tagged; also called ATI001091
EC50 [11]: 2 nM
Kd [20]: 0.293 nM
koff [20]: 8.2e-05 s⁻¹
kon [20]: 286000 M⁻¹ s⁻¹
EC50 [13]: 2.7 nM
IC50 [13]: 2.7 nM
EC50 (cynomolgus monkey PCSK9 [21]): 17.2 nM
Kd [15]: 0.08 nM
Kd (cynomolgus monkey PCSK9 [22]): 23.1 nM
IC50 [16]: 1.4 nM
LDLR Depletion EC50 [17]: 12 nM
Kd [19]: 0.079 nM
koff [19]: 9.76e-06 s⁻¹
kon [19]: 118000 M⁻¹ s⁻¹
Kd (cynomolgus monkey PCSK9 [23]): 23.1 nM
koff (cynomolgus monkey PCSK9 [23]): 0.0044 s⁻¹
kon (cynomolgus monkey PCSK9 [23]): 190000 M⁻¹ s⁻¹

B5: 2013E01 (designed binder)
chain: B4 chain with S27P, H29D, A30D, V54I, V56K, Y79F, A80P, F81W, E82P, G83H
notes: Anti-PCSK9 Adnectin, His6-tagged, unmodified (not PEGylated); also called ATI001081
EC50 [11]: 0.9 nM
koff [20]: 0.000837 s⁻¹ and 0.000349 s⁻¹
kon [20]: 546000 M⁻¹ s⁻¹ and 829000 M⁻¹ s⁻¹
EC50 (cynomolgus monkey PCSK9 [12]): 12.5 nM
EC50 [13]: 1.6 nM
IC50 [13]: 1.6 nM
Kd [24]: 6.7 nM
koff [24]: 0.000245 s⁻¹
kon [24]: 36500 M⁻¹ s⁻¹
Kd (cynomolgus monkey PCSK9 [14]): 8.1 nM
Kd [15]: 0.29 nM
Ka [25]: 7.1e+08 M⁻¹
Kd [25]: 1.4 nM
Stoichiometry (N) [25]: 0.926
ΔH [25]: -111 kJ/mol
ΔS [25]: -45.4 cal/mol °C
IC50 [16]: 1.8 nM
LDLR Depletion EC50 [17]: 10 nM
Kd [26]: 0.0695 nM
Kd (cynomolgus monkey PCSK9 [18]): 8.1 nM
koff (cynomolgus monkey PCSK9 [18]): 0.00177 s⁻¹
kon (cynomolgus monkey PCSK9 [18]): 219000 M⁻¹ s⁻¹

B6: SABA2.1 (designed binder)
chain: MGVSDVPRDLEVVAATPTSLLISWPKYDKTGHYYRITYGETGGNSPVQEFTVPTRQTTATISGLKPGVDYTITVYAVSKDDYYPHEHRPISINYRTEIDKPSQHHHHHH
Kd (human serum albumin [27]): 33.8 nM
Kd (rhesus serum albumin [2]): 63.6 nM
koff (rhesus serum albumin [2]): 0.000442 s⁻¹
koff (human serum albumin [3]): 0.000171 s⁻¹

B8: SABA1.2 (designed binder)
chain: MGVSDVPRDLEVVAATPTSLLISWHSYYEQNSYYRITYGETGGNSPVQEFTVPYSQTTATISGLKPGVDYTITVYAVYGSKYYYPISINYRTEIEDEDEDEDED
notes: core 1 10Fn3 with (ED)5 extension
fold increase in affinity at 37 C against 25 C (human serum albumin [30]): ~2 fold
affinity at 37 C relative to 25 C (rhesus serum albumin [31]): 0.5 fold
binding result (rat serum albumin): no binding (tested: up to 1 µM)
binding result (murine serum albumin): no binding (tested: up to 1 µM)
